B1: IFRG15 (parent)
chain: INRADYCPECYPDNPANRSLVLPW
B2: MMP1 (parent)
chain: MFFKDRFYMRTNPFYPEVELNFIS

Variants of: B1
Assay: protein stability index of a GFP-peptide fusion (GPS, HEK-293T) (PSI 1-6); higher = more stable
Details: c terminus: a fixed tail appended
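Further: lentivirally expressed fusions sorted by FACS into six bins by GFP to DsRed ratio, PSI derived from sequencing read proportions per bin multiplied by bin number.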

Protein stability index: each site, then its substitutions
N14: Y 2.08
P15: A 2.9 | C 2.02 | D 2.12 | E 2.58 | F 1.44 | G 2.48 | H 2.46 | I 2.29 | K 1.74 | L 1.97 | M 2.19 | N 1.97 | Q 2.1 | R 2.07 | S 2.94 | T 1.9 | V 1.51 | W 2.19 | Y 1.84
A16: C 1.69 | D 2.37 | E 2.42 | F 2.02 | G 2.04 | H 1.71 | I 1.6 | K 1.94 | L 1.86 | M 1.85 | N 2.4 | P 2.15 | Q 2.23 | R 1.67 | S 2.42 | T 2.06 | V 1.85 | W 1.85 | Y 2.67
N17: A 2.3 | C 2.03 | D 2.1 | E 2.14 | F 1.54 | G 2.53 | H 2.04 | I 2.25 | K 1.8 | L 1.68 | M 1.91 | P 1.89 | Q 1.79 | R 1.51 | S 2.21 | T 2.53 | V 1.79 | W 1.6 | Y 1.74
R18: A 2.17 | C 1.81 | D 2.88 | E 2.13 | F 2.32 | G 1.99 | H 2.17 | I 1.82 | K 2.83 | L 1.83 | M 2.06 | N 2.22 | P 2.38 | Q 1.99 | S 2.27 | T 1.35 | V 1.9 | W 1.69 | Y 1.44
S19: A 2.16 | C 1.81 | D 2.3 | E 2.22 | F 1.27 | G 1.82 | H 2.07 | I 1.72 | K 2.14 | L 2.16 | M 1.65 | N 1.8 | P 2.4 | Q 2 | R 1.59 | T 1.77 | V 1.41 | W 1.99 | Y 1.88
L20: A 3.02 | C 2.06 | D 2.73 | E 2.9 | F 1.79 | G 2.48 | H 2.4 | I 2.27 | K 2.27 | M 2.67 | N 2.78 | P 2.31 | Q 2.02 | R 2.13 | S 2.28 | T 2.57 | V 2.44 | W 1.8 | Y 1.86
V21: A 2.54 | C 1.82 | D 2.43 | E 2.29 | F 1.54 | G 2.69 | H 1.84 | I 1.97 | K 1.98 | L 2.53 | M 2.29 | N 2.3 | P 2.92 | Q 2.12 | R 1.83 | S 1.97 | T 2.43 | W 1.29 | Y 1.99
L22: A 2.69 | C 2.12 | D 2.15 | E 2.44 | F 2.05 | G 2.37 | H 1.49 | I 1.72 | K 2.04 | M 2.37 | N 2.65 | P 2.93 | Q 2.35 | R 2.36 | S 1.93 | T 2.31 | V 3 | W 1.65 | Y 2.17
P23: C 1.67 | D 2.92 | E 1.03 | H 1.65 | I 2.89 | K 1.71 | L 1.57 | M 2.5 | N 1.65 | Q 1.87 | R 1.58 | S 2.83 | T 1.59 | W 2.4 | Y 2.09
W24: A 2.19 | C 2.31 | D 3.89 | E 2.99 | F 2.3 | G 2.69 | H 2.37 | I 1.9 | K 2.28 | L 1.8 | M 2.23 | N 2.46 | P 2.62 | Q 2.24 | R 1.77 | S 2.9 | T 2.3 | V 2.53 | Y 2.12

Variants of: B2
Assay: as above
Details: c terminus: a fixed tail appended

Protein stability index: each site, then its substitutions
M1: A 1.89 | C 2.83 | D 2.24 | E 2.86 | F 3.03 | H 2.05 | I 2.17 | K 2.94 | N 1.76 | R 2.2 | S 2.84 | V 3.89 | W 3.52 | Y 1.86
F2: A 3.29 | C 3.01 | D 2.71 | E 2.98 | G 3.1 | H 2.93 | I 2.59 | K 4.48 | L 2.36 | M 2.02 | N 1.93 | P 2.06 | Q 2.26 | R 4.3 | S 2.72 | T 2.29 | V 2.75
F3: D 1.85 | E 1.5 | G 4.14 | H 1.89 | I 2.64 | K 1.83 | L 2.29 | N 1.73 | P 1.48 | Q 3.42 | R 1.55 | S 2.9 | T 2.11 | V 2.82 | W 3.61 | Y 2.97
K4: F 3.7 | G 1.72 | H 3.26 | I 3.25 | M 2.3 | N 2.26 | P 2.5 | Q 4.05 | R 2.56 | S 3.15 | V 1.49 | W 2.11 | Y 3.55
D5: A 2.8 | C 3.75 | E 2.63 | G 3.47 | H 2.78 | I 2.52 | L 2.49 | M 2.63 | N 2.77 | P 3.51 | Q 3.19 | S 2.64 | T 3.47 | V 2.6 | W 1.94 | Y 2.38
R6: C 2.09 | E 2.85 | F 2.48 | G 3.07 | H 3.05 | I 3.27 | K 3.46 | L 2.39 | M 2.35 | N 2.96 | Q 3.4 | S 2.64 | T 3.77 | V 3.16 | W 2.14 | Y 3.35
F7: A 3.4 | C 2.32 | D 1.91 | E 3.35 | H 2.13 | K 2.45 | L 3.36 | M 2.98 | N 1.31 | P 3.98 | Q 2.06 | R 3.28 | V 4.52 | W 3.2 | Y 1.96
Y8: A 2.69 | C 3.33 | D 2.43 | E 1.89 | F 2.64 | G 2.07 | H 2.22 | I 2.73 | K 1.99 | M 2.89 | N 2.17 | P 2.98 | Q 2.87 | R 2.98 | S 3.33 | T 2.23 | V 3.2 | W 2.96
M9: A 1.27 | C 3.4 | D 1.75 | E 1.93 | F 2.56 | G 3.71 | H 1.83 | I 2.02 | K 2.59 | L 1.86 | P 1.93 | Q 2.65 | R 2.1 | S 3.67 | T 2.76 | V 2.71 | W 3.91 | Y 3.12
R10: A 1.52 | C 3.2 | D 2.14 | E 2.37

— the supplement of paper PMC10567573
